These results are taken from patent US20080044424.

The target in the data set is T1, human PAR1 (AA #27-102)/thioredoxin fusion protein (UniProt P25116).
T1 sequence: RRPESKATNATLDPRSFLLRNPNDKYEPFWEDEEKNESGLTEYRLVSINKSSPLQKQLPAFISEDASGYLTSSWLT

Turning to thrombin, the proteolytic cleavage result is on record as “The PAR1/thioredoxin was cleaved to completion with thrombin”.
